Data reported in IntAct's records for PubMed 22922713.

B1: WD repeat-containing protein 19 (Mus musculus), Q3UGF1 (parent)
chain: MKRVFSLLEKSWLGAPIQFAWQKSSGNYLAVTGADYIVKIFDRHGQKRSEISLPGNCVTMDWDKDGDILAVIAEKSSCIYLWDANTNKTSQLDNGMRDQMSFLLWSKIGSFLAVGTIKGNLLIYNHQTSRKIPVLGKHTKKITCGCWNSENLLALGGEDKMITVSNQEGDTIRQTPVKSEPSDIKFSMSKTDERISSAENTISAVVGKKMLFLFHLNEPDNPVDLEFQQAYGNIVCYSWYGDGYIMIGFSRGTFLAISTHFPEVGQEIFKARDHKDNLTSVALSQTLNKAATCGDNCIKIHDLTELRDMYAIINLDDENKGLGTLSWTDDGQLLALSTQRGSLHVFLTKLPILGDACHTRIAYLTSLLEVTVANLIEGEPPITVSVDVEPTFVAVGLYHLAVGMNNRAWFYVLGENVVKKLKDVEYLGTVASICLHSDYAAALFEGKIQLHLIENEMLDAQEERETRLFPAVDDKCRILCHALTSDFLIYGTDTGIIHYFFIEDWQFVNDYRHPVGVKKLFPDPNGTRLVFIDEKSDGFVYCPVNDATYEIPDFSPTIKGVLWENWPMDKGVFIAYDDDKVYTYAFHKDTIQGSKVILAGSTKLPFSHKPLLLYNGELTCQTQSGKINSIYLSTHSFLGSMKDTEPTDLRQMLTQTLLLKRFSDAWDICKMLNDRTSWSELAKACLHHMEVEFAIRVSRTMGDVGTVMSLEQIKGIEDYNLLAGHLAMFTNDFNLAQDLYLASNCPVAALEMRRDLQHWDSALQLAKRLAPDQIPFISKEYAIQLEFTGDYVNALAHYEKGITGDNKEHDEVCLAGVAQMSIRMGDIRRGANQALKHPSRVLKRDCGAILENMKQFSEAAQLYEKGQYYDRAASVYIRCKNWAKVGELLPHVSSPKIHLQYAKAKEADGRYKEAVVAYENAKQWNSVIRIYLDHLNNPEKAVSIVRETQSLDGAKMVARFFLQLGDYGSAIQFLVLSKCNNEAFTLAQQHNKMEIYADIIGAEDTTNEDYQSIALYFEGEKRHFQAGKFFLLCGQYSRALKHFLKCPSSEDNVAIEMAIETVGQAKDELLTNQLIDHLMGESDGMPKDAKYLFRLYMALKQYREAARTAIIIAREEQSAGNYRNAHDVLFSMYAELKAQKIKIPSEMATNLMILHSYILVKIHVKSGDHMKGARMLIRVANNISKFPSHIVPILTSTVIECHRAGLKNSAFSFAAMLMRPEYRNKIDAKYKKKIEAMVRRPDTSETEEATTPCPFCQFLLPECELLCPGCKNNIPYCIATGRHMLKDDWTMCPHCGFPALYSEFKILLNSESTCPMCSERLNSSQLKKITDCSQYLRTEME
partner: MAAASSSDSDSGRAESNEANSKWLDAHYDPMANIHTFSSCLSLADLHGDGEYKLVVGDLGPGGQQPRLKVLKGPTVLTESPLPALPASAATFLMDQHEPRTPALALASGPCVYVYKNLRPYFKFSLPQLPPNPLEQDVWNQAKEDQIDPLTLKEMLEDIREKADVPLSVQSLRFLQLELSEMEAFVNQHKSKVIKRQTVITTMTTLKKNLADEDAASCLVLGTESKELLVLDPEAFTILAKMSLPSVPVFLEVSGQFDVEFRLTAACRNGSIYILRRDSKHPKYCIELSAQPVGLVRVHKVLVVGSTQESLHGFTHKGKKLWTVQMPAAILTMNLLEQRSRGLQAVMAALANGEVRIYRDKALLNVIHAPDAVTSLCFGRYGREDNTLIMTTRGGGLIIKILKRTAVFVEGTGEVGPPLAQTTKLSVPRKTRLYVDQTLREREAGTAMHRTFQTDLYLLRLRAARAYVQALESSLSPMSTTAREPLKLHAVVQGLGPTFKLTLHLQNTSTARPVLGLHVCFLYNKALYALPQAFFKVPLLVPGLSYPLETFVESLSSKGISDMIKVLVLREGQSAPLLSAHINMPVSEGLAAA

Variants of: B1
Details: with bbs1_mouse Bbs1, Q3V3N7

| effect of a mutation on the interaction | Variant |
| --- | --- |
| decreasing interaction strength | G341R |
